Reference: paper PMC8024894
Blank lines part the entries; values can stand above or below the molecule they belong to.

How the values were obtained:
[1] = biological target: endogenous neurexin on the surface of immature hippocampal neurons (mouse (endogenous in primary hippocampal neurons)) (UniProt Q9CS84); test: immunostaining of cells or tissue; cell surface binding assay, apparent Kd: Fc protein at 0-100 nM in HEPES bath solution, 1 h at room temperature, on DIV10 hippocampal neurons transduced with CA10-FLAG lentivirus; Fc signal normalised to neurexin staining
Chain of UniProt Q9CS84 (Q9CS84 31-1514): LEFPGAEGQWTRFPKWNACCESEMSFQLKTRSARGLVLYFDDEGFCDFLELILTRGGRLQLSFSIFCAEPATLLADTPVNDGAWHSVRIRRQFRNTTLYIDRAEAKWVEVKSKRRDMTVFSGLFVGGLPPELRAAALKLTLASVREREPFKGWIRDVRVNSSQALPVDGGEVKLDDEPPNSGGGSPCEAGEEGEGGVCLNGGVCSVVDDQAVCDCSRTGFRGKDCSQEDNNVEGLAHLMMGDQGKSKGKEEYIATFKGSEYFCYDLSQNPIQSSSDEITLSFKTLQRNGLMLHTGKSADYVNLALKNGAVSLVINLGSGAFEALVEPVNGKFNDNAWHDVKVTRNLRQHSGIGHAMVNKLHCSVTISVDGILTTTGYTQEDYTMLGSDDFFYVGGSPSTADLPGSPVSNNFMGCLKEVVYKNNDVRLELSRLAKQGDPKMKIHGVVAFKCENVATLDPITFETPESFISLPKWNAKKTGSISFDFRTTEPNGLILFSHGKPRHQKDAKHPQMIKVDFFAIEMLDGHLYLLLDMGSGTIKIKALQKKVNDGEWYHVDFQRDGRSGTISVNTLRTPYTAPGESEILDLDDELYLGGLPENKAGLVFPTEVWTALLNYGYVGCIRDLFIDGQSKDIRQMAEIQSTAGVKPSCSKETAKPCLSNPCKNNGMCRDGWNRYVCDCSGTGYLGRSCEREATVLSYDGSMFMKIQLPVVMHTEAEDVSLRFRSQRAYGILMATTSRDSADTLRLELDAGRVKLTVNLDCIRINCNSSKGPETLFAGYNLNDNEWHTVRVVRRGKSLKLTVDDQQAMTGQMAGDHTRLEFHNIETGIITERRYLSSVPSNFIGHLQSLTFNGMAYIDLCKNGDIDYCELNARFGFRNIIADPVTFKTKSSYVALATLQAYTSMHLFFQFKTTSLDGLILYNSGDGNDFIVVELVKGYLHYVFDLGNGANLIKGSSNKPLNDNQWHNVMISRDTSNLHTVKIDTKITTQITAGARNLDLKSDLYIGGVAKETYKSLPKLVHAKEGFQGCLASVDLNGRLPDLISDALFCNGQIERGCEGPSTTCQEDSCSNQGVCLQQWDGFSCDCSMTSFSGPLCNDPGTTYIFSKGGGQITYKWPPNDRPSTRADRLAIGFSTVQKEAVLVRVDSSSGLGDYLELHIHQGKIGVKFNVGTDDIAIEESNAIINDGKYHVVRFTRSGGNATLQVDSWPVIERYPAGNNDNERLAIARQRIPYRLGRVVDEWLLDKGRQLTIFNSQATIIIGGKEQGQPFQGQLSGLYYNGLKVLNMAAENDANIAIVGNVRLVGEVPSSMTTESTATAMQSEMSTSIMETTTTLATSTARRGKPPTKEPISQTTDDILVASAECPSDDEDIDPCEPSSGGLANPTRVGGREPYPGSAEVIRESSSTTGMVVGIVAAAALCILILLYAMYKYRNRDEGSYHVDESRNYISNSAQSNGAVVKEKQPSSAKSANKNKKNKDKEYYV

[2] = biological target: endogenous neurexin on the surface of immature hippocampal neurons (mouse (endogenous in primary hippocampal neurons)) (UniProt Q9CS84); test: immunostaining of cells or tissue; cell surface binding assay, apparent Kd: Fc protein at 0-100 nM in HEPES bath solution, 1 h at room temperature, on DIV10 hippocampal neurons transduced with control (empty vector) lentivirus; Fc signal normalised to neurexin staining

Kd [1]: 223 nM
Kd [2]: 186 nM
Molecule: Fc‐tagged Nlgn1 (Fc fusion)

Kd [1]: 35.3 nM
Kd [2]: 29.5 nM
B1: Fc‐tagged LRRTM2 (Fc fusion)
chain: CPPKCRCEKLLFYCDSQGFHSVPNATDKGSLGLSLRHNHITELERDQFASFSQLTWLHLDHNQISTVKEDAFQGLYKLKELILSSNKIFYLPNTTFTQLINLQNLDLSFNQLSSLHPELFYGLRKLQTLHLRSNSLRTIPVRLFWDCRSLEFLDLSTNRLRSLARNGFAGLIKLRELHLEHNQLTKINFAHFLRLSSLHTLFLQWNKISNLTCGMEWTWGTLEKLDLTGNEIKAIDLTVFETMPNLKILLMDNNKLNSLDSKILNSLRSLTTVGLSGNLWECSARICALASWLGSFQGRWEHSILCHSPDHTQGEDILDAVHGFQLCWNLSTTVTVMATTYRDPTTEYTKRISSSSYHVGDKEIPTTAGIAVTTEEHFPEPDNAIFTQR
